Series [1] deals with SisLac, Phosphotriesterase-Like Lactonase from Sulfolobus islandicus strain M.16.4 (Sulfolobus islandicus strain M.16.4). Put plainly: SEC-MALS; KW803 column (Shodex), room temperature (25°C), 0.5 ml/min, activity buffer (HEPES 50 mM, NaCl 150 mM, CoCl2 0.2 mM) with pH adjusted to 7.3; static and quasi-elastic light scattering, refractometry.
Series [2] has the same target. The series is described as follows: dynamic light scattering; room temperature, 30 µL of purified protein at 2.5 mg/mL in activity buffer (HEPES 50 mM pH 8, NaCl 150 mM, CoCl2 0.2 mM), 633 nm.
Series [3] concerns the molecule itself. Put plainly: SEC-MALS; KW803 column (Shodex), room temperature (25°C), 0.5 ml/min, activity buffer (HEPES 50 mM, NaCl 150 mM, CoCl2 0.2 mM) with pH adjusted to 7.3; static and quasi-elastic light scattering, refractometry.

In the case of “SisLac, Phosphotriesterase-Like Lactonase from Sulfolobus islandicus strain M.16.4 (enzyme)”, the stoichiometry N in series [1] and in series [2] was 2 throughout.

B1: SsoPox, Phosphotriesterase-Like Lactonase from Sulfolobus solfataricus (enzyme)
chain: MRIPLVGKDSIESKDIGFTLIHEHLRVFSEAVRQQWPHLYNEDEEFRNAVNEVKRAMQFGVKTIVDPTVMGLGRDIRFMEKVVKATGINLVAGTGIYIYIDLPFYFLNRSIDEIADLFIHDIKEGIQGTLNKAGFVKIAADEPGITKDVEKVIRAAAIANKETKVPIITHSNAHNNTGLEQQRILTEEGVDPGKILIGHLGDTDNIDYIKKIADKGSFIGLDRYGLDLFLPVDKRNETTLRLIKDGYSDKIMISHDYCCTIDWGTAKPEYKPKLAPRWSITLIFEDTIPFLKRNGVNEEVIATIFKENPKKFFS
notes: SsoPox, Phosphotriesterase-Like Lactonase of Sulfolobus solfataricus (strain MT4, GenBank AAW47234.1); made from the plasmid pET22b-SsoPox; Plasmid pET22b-SsoPox (GeneArt); also called wt SsoPox; source: E. coli BL21(DE3)-pGro7/GroEL, purified (70°C heat step, ammonium sulfate precipitation, size exclusion chromatography)
For B1, the “stoichiometry N” value in series [3] is 2.
